Reference: patent US20160024194A1

How the values were obtained:
[1] = target: human fibronectin (purified; plasma fibronectin used in the ELISA assays; purified Fibronectin protein from BIOPUR AG in Biacore) (human) (UniProt P02751); test: Biacore 3000, 7A8 captured on anti-mouse antibody, fibronectin injected at 15 nM-500 nM, 1:1 Langmuir fit
[2] = target: human fibronectin (purified; plasma fibronectin used in the ELISA assays; purified Fibronectin protein from BIOPUR AG in Biacore) (human) (UniProt P02751); test: Biacore 3000, 7A8 captured on anti-mouse antibody, fibronectin injected at 20 nM-100 nM, 1:1 Langmuir fit
[3] = target: human fibronectin (purified; plasma fibronectin used in the ELISA assays; purified Fibronectin protein from BIOPUR AG in Biacore) (human) (UniProt P02751); test: SPR, Biacore 3000, antibody captured on anti-mouse antibody on CM-5 chip, fibronectin in solution, 1:1 Langmuir fit, two experiments; lower end of the range from the two independent experiments; the text does not say which experiment
[4] = target: human fibronectin (purified; plasma fibronectin used in the ELISA assays; purified Fibronectin protein from BIOPUR AG in Biacore) (human) (UniProt P02751); test: SPR, Biacore 3000, antibody captured on anti-mouse antibody on CM-5 chip, fibronectin in solution, 1:1 Langmuir fit, two experiments; upper end of the range from the two independent experiments; the text does not say which experiment

B1: 7A8 monoclonal antibody produced by hybridoma PTA-120971 (antibody, V domains shown)
VH: QVQLRESEPGLVAPSRSLSITCTVSGFSLTSYAVSWVRQPPGKGLEWLGVIWTGGGTNYNSALKSRLSISKDNSKNQVFLKMNSLQTDDTARYYCARYSNLYYAMDYWGQGTSVTVSS
VL: DIVMTQSQKFMSTSVGERVSITCKASQNVGTNVAWYQQKAGQSLELLIYGASNRHTGVPDRFTGSGSGTDFTLTITNVQSEDMTNYFCEQYRSYPLTFGGGSKLEIK
- Kd [1]: 2.8 nM
- Kd [2]: 7.26 nM
- Kd [3]: 2.8 nM
- Kd [4]: 7.26 nM
